Experimental findings from patent US20260242735A1 (UNIVERSIT T BASEL, published 2026) are described below.

Experiment [1] deals with human CD33 P48W (human, UniProt P20138 18-364). The experiment in a line: flow cytometry, transfected cells.
Experiment [2] addresses human CD33 Y49P (human, UniProt P20138 18-364). The experiment is described as follows: flow cytometry, transfected cells. (Flow cytometry measures light scatter and fluorescence of single cells or particles in a stream.)
Experiment [3] deals with human CD33 Y50D (human, UniProt P20138 18-364). The experiment is described as follows: flow cytometry, transfected cells.
Sequence of human CD33 Y50D (P20138 18-364 Y50D limits assumed): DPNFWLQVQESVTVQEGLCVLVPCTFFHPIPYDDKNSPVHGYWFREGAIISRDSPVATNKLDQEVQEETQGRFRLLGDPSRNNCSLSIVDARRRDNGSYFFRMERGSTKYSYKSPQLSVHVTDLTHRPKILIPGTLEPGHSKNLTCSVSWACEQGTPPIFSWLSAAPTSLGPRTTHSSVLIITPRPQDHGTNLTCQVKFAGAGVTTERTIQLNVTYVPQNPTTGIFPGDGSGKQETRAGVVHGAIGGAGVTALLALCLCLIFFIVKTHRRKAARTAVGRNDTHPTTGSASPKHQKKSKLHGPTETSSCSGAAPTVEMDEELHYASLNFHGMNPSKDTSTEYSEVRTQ
Experiment [4] has as its target human CD33 Y49C (human, UniProt P20138 18-364). The experiment is described as follows: flow cytometry, transfected cells.
Experiment [5] concerns the target human CD33 Y50G (human, UniProt P20138 18-364). The experiment is described as follows: flow cytometry, transfected cells.
Experiment [6] addresses human CD33 I47P (human, UniProt P20138 18-364). The experiment is described as follows: flow cytometry, transfected cells.
In experiment [7] the target is human CD33 P48Q (human, UniProt P20138 18-364). The experiment is described as follows: flow cytometry, transfected cells.
Sequence of human CD33 P48Q (P20138 18-364 P48Q limits assumed): as the sequence (P20138 18-364 Y50D limits assumed) above, with P31Q, D33Y counted along it
In experiment [8] the target is human CD33 P48Y (human, UniProt P20138 18-364). The experiment is described as follows: flow cytometry, transfected cells.
Sequence of human CD33 P48Y (P20138 18-364 P48Y limits assumed): as the sequence (P20138 18-364 Y50D limits assumed) above, with P31Y, D33Y counted along it
Experiment [9] has as its target human CD33 Y49D (human, UniProt P20138 18-364). The experiment is described as follows: flow cytometry, transfected cells.
The target in experiment [10] is human CD33 Y50I (human, UniProt P20138 18-364). The experiment in a line: flow cytometry, transfected cells.
Sequence of human CD33 Y50I (P20138 18-364 Y50I limits assumed): as the sequence (P20138 18-364 Y50D limits assumed) above, with D33I counted along it
Experiment [11] has as its target human CD33 Y50N (human, UniProt P20138 18-364). The experiment in a line: flow cytometry, transfected cells.
Experiment [12] has as its target human CD33 Y50L (human, UniProt P20138 18-364). The experiment is described as follows: flow cytometry, transfected cells.
In experiment [13] the target is human CD33 P48N (human, UniProt P20138 18-364). The experiment is described as follows: flow cytometry, transfected cells.
Sequence of human CD33 P48N (P20138 18-364 P48N limits assumed): as the sequence (P20138 18-364 Y50D limits assumed) above, with P31N, D33Y counted along it
Experiment [14] addresses human CD33 Y50S (human, UniProt P20138 18-364). The experiment in a line: flow cytometry, transfected cells.
Experiment [15] addresses human CD33 Y50Q (human, UniProt P20138 18-364). The experiment in a line: flow cytometry, transfected cells.
The target of experiment [16] is human CD33 P48F (human, UniProt P20138 18-364). The experiment is described as follows: flow cytometry, transfected cells.
Sequence of human CD33 P48F (P20138 18-364 P48F limits assumed): as the sequence (P20138 18-364 Y50D limits assumed) above, with P31F, D33Y counted along it
The target of experiment [17] is human CD33 P48G (human, UniProt P20138 18-364). The experiment is described as follows: flow cytometry, transfected cells.
Sequence of human CD33 P48G (P20138 18-364 P48G limits assumed): as the sequence (P20138 18-364 Y50D limits assumed) above, with P31G, D33Y counted along it
Experiment [18] deals with human CD33 P132H (human, UniProt P20138 18-364). The experiment is described as follows: flow cytometry, transfected cells, IgG.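 Note: CD33 point mutants transiently expressed in HEK293-T cells, antibody binding read by fluorescence, background subtracted and normalized to wild-type CD33 as 100%, duplicates.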
Sequence of human CD33 P132H (P20138 18-364 P132H limits assumed): as the sequence (P20138 18-364 Y50D limits assumed) above, with D33Y, P115H counted along it
Method: (§1) An alanine scan on human CD33 was performed to the determine the residues on CD33 that are involved in binding to the antibodies investigated. […] Briefly, a mutation library of CD33 was created by high-throughput, site-directed mutagenesis. Each residue was individually mutated to alanine, with alanine codons mutated to serine. The mutant library was arrayed in 384-well microplates and transiently transfected into HEK293-T. Following transfection, cells were incubated with the indicated antibodies (IgG or Fab) at concentrations pre-determined using an independent immunofluorescence titration curve on wild type CD33. […] Binding of each antibody to each mutant clone was determined in duplicates. For each point, background fluorescence was subtracted from the raw data, which were then normalized to antibody reactivity with wild type CD33.
(§2) Antibodies were screened for binding to the human CD33 variants in IgG format. […] For each mutation, background fluorescence was subtracted from the raw data, which were then normalized to antibody reactivity with wild-type CD33.
Experiment [19] deals with human CD33 R122I (human, UniProt P20138 18-364). The experiment in a line: flow cytometry, transfected cells, IgG.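 Note: CD33 point mutants transiently expressed in HEK293-T cells, antibody binding read by fluorescence, background subtracted and normalized to wild-type CD33 as 100%, duplicates.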
Sequence of human CD33 R122I (P20138 18-364 R122I limits assumed): as the sequence (P20138 18-364 Y50D limits assumed) above, with D33Y, R105I counted along it
Method: as §1, §2

Sequence of human CD33 Y50G (P20138 18-364 Y50G limits assumed): as the sequence (P20138 18-364 Y50D limits assumed) above, with D33G counted along it
Sequence of human CD33 P48W (P20138 18-364 P48W limits assumed): as the sequence (P20138 18-364 Y50D limits assumed) above, with P31W, D33Y counted along it
Sequence of human CD33 Y50L (P20138 18-364 Y50L limits assumed): as the sequence (P20138 18-364 Y50D limits assumed) above, with D33L counted along it
Sequence of human CD33 Y50S (P20138 18-364 Y50S limits assumed): as the sequence (P20138 18-364 Y50D limits assumed) above, with D33S counted along it
Sequence of human CD33 Y49P (P20138 18-364 Y49P limits assumed): as the sequence (P20138 18-364 Y50D limits assumed) above, with Y32P, D33Y counted along it
Sequence of human CD33 Y50Q (P20138 18-364 Y50Q limits assumed): as the sequence (P20138 18-364 Y50D limits assumed) above, with D33Q counted along it
Sequence of human CD33 Y49C (P20138 18-364 Y49C limits assumed): as the sequence (P20138 18-364 Y50D limits assumed) above, with Y32C, D33Y counted along it
Sequence of human CD33 Y49D (P20138 18-364 Y49D limits assumed): as the sequence (P20138 18-364 Y50D limits assumed) above, with Y32D, D33Y counted along it
Sequence of human CD33 Y50N (P20138 18-364 Y50N limits assumed): as the sequence (P20138 18-364 Y50D limits assumed) above, with D33N counted along it
Sequence of human CD33 I47P (P20138 18-364 I47P limits assumed): as the sequence (P20138 18-364 Y50D limits assumed) above, with I30P, D33Y counted along it

B1: Refmab #5 (antibody, human IgG1, V domains shown)
VH: QVQLVQSGAEVKKPGASVKVSCKASGYTFTNYDINWVRQAPGQGLEWIGWIYPGDGSTKYNEKFKAKATLTADTSTSTAYMELRSLRSDDTAVYYCASGYEDAMDYWGQGTTVTVSS
VL: DIQMTQSPSSLSASVGDRVTINCKASQDINSYLSWFQQKPGKAPKTLIYRANRLVDGVPSRFSGSGSGQDYTLTISSLQPEDFATYYCLQYDEFPLTFGGGTKVEIK
B1: the binding result in [1], in experiment [2], in experiment [3], in [4], in [5] and in experiment [6] was “no binding (tested: below 20%)” throughout. For the same molecule, the binding result in experiment [7], in [8], in experiment [9], in experiment [10], in [11] and in [12] was “no binding (tested: below 20%)” in each case. Also, the binding result in experiment [13], in experiment [14], in [15], in [16] and in experiment [17] was “no binding (tested: below 20%)” throughout. The “Mean % WT Binding” value was determined as 88.2% in experiment [18] and 86.1% in experiment [19].

B2: Refmab #4 (antibody, human IgG1, V domains shown)
VH: QVQLVQSGAEVKKPGESVKVSCKASGYTFTNYGMNWVKQAPGQGLEWMGWINTYTGEPTYADKFQGRVTMTTDTSTSTAYMEIRNLGGDDTAVYYCARWSWSDGYYVYFDYWGQGTSVTVSS
VL: DIVMTQSPDSLTVSLGERTTINCKSSQSVLDSSTNKNSLAWYQQKPGQPPKLLLSWASTRESGIPDRFSGSGSGTDFTLTIDSPQPEDSATYYCQQSAHFPITFGQGTRLEIK
For B2, the binding result in [1], in experiment [2], in [3], in experiment [4], in [5] and in experiment [7] was “no binding (tested: below 20%)” throughout. Besides, the binding result in [8], in experiment [9], in experiment [10], in [11], in [12] and in experiment [13] was “no binding (tested: below 20%)” in each case. In addition, the binding result in experiment [14], in experiment [15], in experiment [16] and in experiment [17] was “no binding (tested: below 20%)” in each case.
